The text below walks through data of the DeepSol protein solubility set.

The data set in a line: soluble on expression in E. coli; label from the status in PepcDB or PDB records.
“MLEFQTPELLRMPLQELCLHTKLLAPVNCPIADFLMKAPEPPPALIVRNAVQMLKTIDAMDTWEDLTELGYHLADLPVEPHLGKMVLCAVVLKCLDPILTVACTLAYRDPFVLPTQASQKRAAMLCRKRFTAGAFSDHMALLRAFQAWQKARSDGWERAFCEKNFLSQATMEIIIGMRTQLLGQLRASGFVRARGGGDIRDVNTNSENWAVVKAALVAGMYPNLVHVDRENLVSTGPKEKKVRFHPASVLSQPQYKKIPPANGQAAAIKALPTDWLIYDEMTRAHRIANIRCCSAVTPVTILVFCGPARLASNALQEPSSFRVDGIPNDSSDSEMEDKTTANLAALKLDEWLHFTLEPEAASLLLQLRQKWHSLFLRRMRAPSKPWSQVDEATIRAIIAVLSTEEQSAGLQQPSGIGQRPRPMSSEELPLASSWRSNNSRKSSADTEFSDECTTAERVLMKSPSPALHPPRKYKDRGILHPKRGTEDRSDQSSLKSTDSSSYPSPCASPSPPSSGKGSKSPSPRPNMPVRYFIMKSSNLRNLEISQQKGIWSTTPSNERKLNRAFWESSIVYLVFSVQGSGHFQGFSRMSSEIGREKSQDWGSAGLGGVFKVEWIRKESLPFQFAHHLLNPWNDNKKVQISRDGQELEPQVGEQLLQLWERLPLGEKNTTD”: the “soluble on expression in E. coli” value is given as “soluble”.
For “MGSDKIHHHHHHMSTALFHHHSTLQDQLVAIHAALRASLPDIDRIAVAIYDTKTDALHTFIHSSDGRHPLDSYATTLTGVPSLAALATSGRIRVLNDLSPLALTGAHHTQVIAKAYRSSLTVPFYKGKALSGFLFFNSQQPDYFTSRRIDTLALAAEMICSRVIDTVISVEMLTSTIQIAKDISHFRDEETGAHLDRVANYARLIAETMGKEPSALPPGRHPVLDDEFAQMIFLFAPLHDIGKVAIPDHVLLKPGPLTPEERTIMRTHSDKGLAICRRILENVDFISGTQAAMLCDIVHAHHEAWDGSGYPRGLSGADIPLAAAIVTVADVFDALTSARPYKKPWSTEDAFAYLQEKSGQLFNPACVRAFLAHRDDVLAIRARFRDEVIPEAFQTPQTPQSKADKV” the value was “not soluble”.
Turning to “MTEMELKLIKIDTSHYFEKKPGLGERVDYAGRCFYNKFQRVNAMLTSSLIQKHLKREIEIAHNLILRNDKVENIVFDYNGRNPERFYHKAQLLLREEGFMNFTAYNTKTPGHLHLYVHKGHTELGEGERLVKTLSMKLAQGLPKEWKVFPSNEWPKEFNILALPYEVFAKERGSSWAKHL”, the “soluble on expression in E. coli” value is on record as “soluble”.
With “MRLYLLAFLALFGMNAMAADNWKAFPYDQSAYDYPGDKLKEAWPRLTRGFGDYPYPDADWVVNMATAHPDALEKTVKAGTGFTGKPEEAAQYAARLQDVWRLLFRGDYAKAKEQGLALGVGGQVPAMFAQVLYAMFLAPGQAEKQRLLEEVIDYTEQAGPLVKADIVAQFGSVYAKARLAEELSVPVVLKRGYTSEIPKELDALLARQPNQPFALALYGGYEAGVIRKVGKLVGKMTYGVSADKMEQYFARSFRQANDLPIGHYEYANALTYVYGDDEREKAIAQLKQAVAIKPINAMEALEVAHAKKLLAGFEQNTAQR” the entry was “not soluble”; with “MIGEIPGVAAGQPYNSRRLAHEAGVHRPLQAGICGTKATGAESIVVSGGYKDDEDYGDVIIYTGHGGRDSAGNQVSDQSLDDSGNAALVTSYLRGLPVRVIRGSQSGSPFAPSNGYRYDGLYRVASYTSKLGIDGFLIWQFRMEAYEETPTPKITKVRALFAEPTDCAKQDPVAASGTEQPERVTSMVQRIVRSSAIADTVKAWHQDQCQTCGIHIEVPGGFYSEGAHIQALGRPHNGPDRTDNMLCLCPNCHVMLDAGAIVLSDDLIVSKNGQLVGPLRTHPKHKVNIECVRRHRERWRQLEHHHHHH”, “not soluble”; with “MALLEICCYSMECALTAQRNGADRIELCAAPKEGGLTPSFGVLRSVREHITIPVHPIIRPRGGDFYYTDGEFAAMLEDIRLVRELGFPGLVTGVLTVDGDVDMSRMEKIMAAAGPLAVTFHRAFDMCANPFNALKNLADAGVARVLTSGQKADAAQGLSIIMELIAQGDAPTIMAGAGVRANNLQNFLDAGVREVHSSAGVLLPSPMRYRNQGLSMSADIQADEYSRYRVEGAAVAEMKGIIVRHQAKLEHHHHHH”, “soluble”.
